{"source": "patent US12029792B2", "about": "“Stereocomplexes for the delivery of anti-cancer agents” (priority 2018, dated 2024)", "key": {"[1]": {"assay": "In vitro release of DM1 by dialysis with or without GSH", "format": "physicochemical", "protocol": "The release of poly-DM1 was performed by dialysis in phosphate buffered saline (pH 7.4, containing 0.2% w/v polysorbate 80) with or without 10 mM glutathione (GSH). Briefly, 1 mL of the poly-DM1 formulation with the concentration of DM1 adjusted to 0.5 mg/mL by PBS was placed in a dialysis bag (MWCO=3.5k Da), which was sealed. After being immediately immersed in 10 mL release medium, the sample was incubated at 37° C. At scheduled time intervals (4, 8, 24, 48 h), 1 mL of the external release medium was taken out and replenished with an equal volume of fresh medium. All released samples were freeze-dried and the amount of released DM1 was determined using HPLC measurements as described previously.\nRelease of DM1 from the stereocomplex over time, with and without glutathione (GSH) was measured at pH 7.4; results are presented in FIG. 16B. DM1 is released from the isolated prodrug most quickly in the presence of GSH (squares) and more slowly from the stereocomplex (circles). In the absence of glutathione, DM1 is essentially not released from either the isolated prodrug or the complex (triangles and inverted triangles at 0% cumulative release). Thus, conjugation of DM1 with a redox-sensitive disulfide linker prohibits premature release of DM1 without GSH."}, "[2]": {"assay": "Tolerance of formulations in mice without tumors", "format": "in vivo", "details": "healthy mice, tail vein days 1, 8, 15, 22", "protocol": "Healthy mice (n=5 for each treatment group) were injected on days 1, 8, 15, and 22 of a 28-day trial in the tail vein with either the DM1-containing prodrug at 4 mg/kg, the DM1-containing prodrug plus mPEG-PLLA at 4 mg/kg, or the stereocomplex with 4 mg/kg DM1 and 27 mg/kg DTX per injection and body weight was monitored to determine tolerance of the treatments. […] Healthy mice (n=5 for each treatment group) were injected with complex at 3.6 mg/kg DM1 once/week for total three injections, at 5 mg/kg DM1 once/two weeks for total two injections and at 7 mg/kg DM1 only once, respectively."}, "[3]": {"system": "MiA PaCa-2 pancreatic tumor", "assay": "Subcutaneous MiA PaCa-2 pancreatic tumor model", "format": "in vivo, mice", "details": "four injections for D-DM1, two injections for the stereocomplex", "protocol": "In vivo antitumor efficacy of the complex was assessed in a subcutaneous MiA PaCa-2 pancreatic tumor model. MiA PaCa-2 cell suspensions were injected subcutaneously on the backs of mice to establish the tumor model. When tumor volume reached approximately 140 mm^3, groups of tumor bearing mice (n=5) were injected through the tail vein on day 1 and day 14 of an approximately 40-day trial.\n(§1) Antitumor efficacy and toxicity for the stereocomplex and DM1-containing prodrug were assessed in a subcutaneous MiaPaCa-2 pancreatic tumor model. MiA PaCa-2 cell suspensions were injected subcutaneously on the backs of mice to establish the tumor model. When tumor volume reached approximately 140 mm^3, groups of tumor-bearing mice (n=5) were injected with treatment through the tail vein."}, "[4]": {"system": "CNE nasopharyngeal tumor", "assay": "Subcutaneous CNE nasopharyngeal tumor model", "format": "in vivo, mice", "details": "four injections once per week; 4 mg/kg DM1 (complex also 26 mg/kg DTX)", "protocol": "as §1, with “CNE nasopharyngeal” for “MiaPaCa-2 pancreatic”, “model when the treatment is delivered via intravenous injection. Cell” for “model. MiA PaCa-2 cell”, “100” for “140”, “tumor bearing” for “tumor-bearing”, “the complex” for “treatment”"}}}
{"substance": "mPEG-PDLA-SS-DM1 [D-DM1]", "values": [{"measurement": "cumulative release of DM1", "setting": "[1]; pH 7.4, in the absence of glutathione", "result": 0, "unit": "%"}, {"measurement": "Release of DM1 over time", "setting": "[1]; pH 7.4, in the presence of GSH (10 mM)", "result": "most quickly"}, {"measurement": "tail swelling and ulceration", "setting": "[2]; 4 mg/kg DM1", "result": "two mice showed tail swelling and ulceration on days 8-14"}, {"measurement": "Body weight", "setting": "[2]; 4 mg/kg DM1 (stereocomplex also 27 mg/kg DTX), 28-day trial", "result": "increased slightly"}, {"measurement": "antitumor effect (tumor volume)", "setting": "[3]", "result": "almost the same antitumor effect"}, {"measurement": "toxicity: mouse death and body weight", "setting": "[3]", "result": "induced mouse death and obvious body weight decrease"}, {"measurement": "tumor volume", "setting": "[4]", "result": "tumor volume increased significantly"}]}
